Data set [1] deals with YejK(Δ134–147) (E. coli) (UniProt P33920). Description: SEC.
Data set [2] concerns the molecule itself. Description: SEC. For orientation: Size exclusion chromatography separates by hydrodynamic size, large species first.
Data set [3] concerns the molecule itself. The data set is described as follows: cross-linking.
The target of data set [4] is T1, YejK (Escherichia coli, UniProt P33920 1-335).
T1 sequence: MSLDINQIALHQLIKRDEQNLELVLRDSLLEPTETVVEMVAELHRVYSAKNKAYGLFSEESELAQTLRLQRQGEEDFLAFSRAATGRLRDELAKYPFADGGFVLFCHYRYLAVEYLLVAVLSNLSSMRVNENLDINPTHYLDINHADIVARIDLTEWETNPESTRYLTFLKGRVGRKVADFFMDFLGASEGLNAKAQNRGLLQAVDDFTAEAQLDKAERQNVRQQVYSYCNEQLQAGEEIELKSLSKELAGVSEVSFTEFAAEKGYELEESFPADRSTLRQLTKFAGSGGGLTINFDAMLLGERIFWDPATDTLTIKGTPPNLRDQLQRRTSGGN
The data set is described as follows: fluorescence polarization. (In general: Polarisation of emitted light reports the rotation of a fluorescent probe.)

In data set [5] the target is T2, YejK(R276A-R280A-K284A) (Escherichia coli, UniProt P33920 1-335, R276A;R280A;K284A).
T2 sequence: T1 sequence with R276A, R280A, K284A
The data set is described as follows: fluorescence polarization.

Data set [6] deals with T3, YejK C-trunc, YejK(1-290) (Escherichia coli, UniProt P33920 1-290, del291-335).
T3 sequence: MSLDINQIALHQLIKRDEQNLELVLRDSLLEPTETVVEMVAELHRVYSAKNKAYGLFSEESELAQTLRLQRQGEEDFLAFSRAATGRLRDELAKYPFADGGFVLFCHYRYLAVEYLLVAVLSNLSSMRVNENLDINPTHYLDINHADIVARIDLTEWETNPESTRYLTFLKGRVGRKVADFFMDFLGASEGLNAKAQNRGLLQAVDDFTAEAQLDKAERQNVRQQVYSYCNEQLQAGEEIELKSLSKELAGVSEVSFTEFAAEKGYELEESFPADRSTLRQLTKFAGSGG
Description: fluorescence polarization.

Where a chain is given by its changes, count along the chain named. Names and notes keep the numbering of the source.

As usually defined, the stoichiometry N is a count of units in the complex or per binding partner. For orientation: Kd means the equilibrium constant for the complex coming apart.

In data set [1], “YejK(Δ134–147) (from UniProt P33920 1-335) (natural protein)” registered a stoichiometry N of 2.

B1: E. coli YejK protein (WT) (natural protein, UniProt P33920 1-335, looked up)
chain: T1 sequence
Consider B1, for which the “stoichiometry N” value in data set [2] came to 2.

B2: YejK(R173A-R176A-K177A) (natural protein, E. coli, UniProt P33920 1-335, looked up)
chain: T1 sequence with R173A, R176A, K177A
For the molecule B2, the “stoichiometry N” value in data set [3] stood at 2.

B3: YejK(R276A-R280A-K284A) (natural protein, E. coli, UniProt P33920 1-335, looked up)
chain: T1 sequence with R276A, R280A, K284A
Consider B3, for which the “stoichiometry N” value in data set [3] came to 2.

B4: AT-rich 20-mer (dsDNA)
DNA 1: ATTATTAATTAATTAATAAT
DNA 2: ATTATTAATTAATTAATAAT
Turning to B4, the results for the Kd in data set [4] and in data set [5] were 6.8 ± 0.5 µM and 40 ± 5.6 µM, respectively. Further, in data set [6], the binding result was “no binding”.
